Consider 3 molecules from patent US20120100140A1 (Biogen, published 2012).

For assay [1], the target named is T1, CD64 (FcγRI) (UniProt P12314 16-288, limits assumed).
T1 construct: Soluble Fc receptor used in solution; source and construct not described
Nature of the assay: solution affinity SPR: antibody titrated into CD64, inhibition of CD64 binding to immobilized IgG1 MAb; average of two titrations.

The target of the next assay is T2, CD16 (FcγRIIIa V158) (UniProt P08637 17-208, limits assumed).
T2 construct: V158 allotype as printed; source and construct not described; also called Fc gamma III receptor
Nature of the assay: solution affinity SPR: antibody titrated into CD16, inhibition of CD16 binding to immobilized IgG1 MAb; average of two titrations.

Assay [2] has as its target T1, CD64 (FcγRI). Kind of assay: solution affinity SPR: inhibition of CD64 binding to immobilized IgG1 MAb.

T1 sequence (P12314 16-288 limits assumed): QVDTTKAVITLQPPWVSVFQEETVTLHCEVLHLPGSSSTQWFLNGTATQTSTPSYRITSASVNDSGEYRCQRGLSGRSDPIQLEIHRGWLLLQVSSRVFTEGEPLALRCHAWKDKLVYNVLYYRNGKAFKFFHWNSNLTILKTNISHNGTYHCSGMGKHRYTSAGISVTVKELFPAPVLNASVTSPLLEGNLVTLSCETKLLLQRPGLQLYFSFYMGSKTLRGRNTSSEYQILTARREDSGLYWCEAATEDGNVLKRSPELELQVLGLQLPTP
T2 sequence (P08637 17-208 F176V limits assumed): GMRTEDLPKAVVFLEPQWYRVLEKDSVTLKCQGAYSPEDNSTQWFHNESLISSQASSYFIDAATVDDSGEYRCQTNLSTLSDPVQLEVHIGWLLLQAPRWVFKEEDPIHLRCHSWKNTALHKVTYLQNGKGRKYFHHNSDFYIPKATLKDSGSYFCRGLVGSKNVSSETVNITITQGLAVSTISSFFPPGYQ

B1: pEAG2300 (hu5c8, IgG4 chimeric hinge + IgG1 CH3, glycosylated) (antibody)
chain 1: QVQLVQSGAEVVKPGASVKLSCKASGYIFTSYYMYWVKQAPGQGLEWIGEINPSNGDTNFNEKFKSKATLTVDKSASTAYMELSSLRSEDTAVYYCTRSDGRNDMDSWGQGTLVTVSSASTKGPSVFPLAPCSRSTSESTAALGCLVKDYFPEPVTVSWNSGALTSGVHTFPAVLQSSGLYSLSSVVTVPSSSLGTKTYTCNVDHKPSNTKVDKRVESKYGPPCPPCPAPPVAGPSVFLFPPKPKDTLMISRTPEVTCVVVDVSQEDPEVQFNWYVDGVEVHNAKTKPREEQFNSTYRVVSVLTVLHQDWLNGKEYKCKVSNKGLPSSIEKTISKAKGQPREPQVYTLPPSRDELTKNQVSLTCLVKGFYPSDIAVEWESNGQPENNYKTTPPVLDSDGSFFLYSKLTVDKSRWQQGNVFSCSVMHEALHNHYTQKSLSLSPG
chain 2: DIVLTQSPATLSVSPGERATISCRASQRVSSSTYSYMHWYQQKPGQPPKLLIKYASNLESGVPARFSGSGSGTDFTLTISSVEPEDFATYYCQHSWEIPPTFGGGTKLEIKRTVAAPSVFIFPPSDEQLKSGTASVVCLLNNFYPREAKVQWKVDNALQSGNSQESVTEQDSKDSTYSLSSTLTLSKADYEKHKVYACEVTHQGLSSPVTKSFNRGEC
Turning to B1, in the assay with CD64 (FcγRI) [1], the IC50 (in general, the midpoint of a concentration-inhibition curve) came to 3020 µM.

B2: IgG4.P T299A (hu5c8 aglycosylated IgG4.P S228P, T299A) (antibody)
chain 1: not shown
chain 2: DIVLTQSPATLSVSPGERATISCRASQRVSSSTYSYMHWYQQKPGQPPKLLIKYASNLESGVPARFSGSGSGTDFTLTISSVEPEDFATYYCQHSWEIPPTFGGGTKLEIKRTVAAPSVFIFPPSDEQLKSGTASVVCLLNNFYPREAKVQWKVDNALQSGNSQESVTEQDSKDSTYSLSSTLTLSKADYEKHKVYACEVTHQGLSSPVTKSFNRGEC
Turning to B2, the IC50 with CD64 (FcγRI) [1] is 739 µM.

B3: EC300 (hu5c8 IgG4.P S228P, T307P, glycosylated) (antibody)
chain 1: not shown
chain 2: DIVLTQSPATLSVSPGERATISCRASQRVSSSTYSYMHWYQQKPGQPPKLLIKYASNLESGVPARFSGSGSGTDFTLTISSVEPEDFATYYCQHSWEIPPTFGGGTKLEIKRTVAAPSVFIFPPSDEQLKSGTASVVCLLNNFYPREAKVQWKVDNALQSGNSQESVTEQDSKDSTYSLSSTLTLSKADYEKHKVYACEVTHQGLSSPVTKSFNRGEC
Take B3: the IC50 in the assay with CD16 (FcγRIIIa V158) was 564 µM; with CD64 (FcγRI) [2], roughly 8 µM; with CD64 (FcγRI) [1], 11.2 µM.
